Measurements as given in the DeepSol protein solubility set.

Assay: soluble on expression in E. coli; label from the status in PepcDB or PDB records

| Sequence | soluble on expression in E. coli |
| --- | --- |
| MSLRIIVVGGGKVGTALCRSLVAEKHDVVLIEKKENVLKRVTKQHDIMGIVGNGANYKILEQAEVKNCDIFIAITDRDEVNMISAVLAKKMGAKETVVRMRNPEYSNPYFKDKNFLGFSSVVNPELLAAQYIANTIEFPNATSVEHFANGRVMLMEFKILEGNKLCHTSMSQIRKKFGNIVICAIERDGKLIIPDGDATIQVKDKIFVTGNRIEMILFHNYVKNKVVKNLMVIGAGRIAYYLLNILKNTNTHVKLVELNQEQAEYFSQEFPNVPVVHGDGTAKNILLEESVTSFDAVATLTGVDEENIITSMFLESIGIPKNITKVNRTSLLEIIDDKQLSSIITPKRIAVDHVMHFVRGRVNAQDSNLEAMHHIANDRIETLQFEIKETSKLANRSLASLKLKQNILIAAIIRNNKTIFPTGEDVLTVGDRIVVITLLKNITRTSDMLAREGHHHHHH | soluble |
| MKKDLSALKEARFNAILDSATILLVENPTASMNEIAEYAGIGIATLHRYVESREKLMLFLGHRAIQLVSDTVNQIPLDEERSENYIPELIEALIPLGDKIYFLGHDASVFNNKELGEAEEKLREPLRRVIELLQQRGYFQQTVSSEWILNTLYALLFHTWEQVHEGNVAKKSAAELVLNTFYYGFKAKDELRGK | not soluble |
| MGSDKIHHHHHHMKQKNYHSCTVGQIVAGNFDTTKVFSRYHIDFCCHGNTPFAEACRNRGIDPEAVAHELNELQENTVSNAPDFAGWPIDLLIDYVLKIHHRGIRAKGPQIEALLTKVTEAHSKNHPELLQVQALFRDSLLDLENHLSKEENVLFPYVYEMFQAKEEGLKVAKFHCGTILYPIEVMEDEHNHEGERFEKISSLTNGFTAPEDACASFRLVLQQLKQFEEALHEHIHLENNIIFPRALELEKKEAI | not soluble |
| MTQTYNADAIEVLTGLEPVRRRPGMYTDTTRPNHLGQEVIDNSVDEALAGHAKRVDVILHADQSLEVIDDGRGMPVDIHPEEGVPAVELILCRLHAGGKFSNKNYQFSGGLHGVGISVVNALSKRVEVNVRRDGQVYNIAFENGEKVQDLQVVGTCGKRNTGTSVHFWPDETFFDSPRFSVSRLTHVLKAKAVLCPGVEITFKDEINNTEQRWCYQDGLNDYLAEAVNGLPTLPEKPFIGNFAGDTEAVDWALLWLPEGGELLTESYVNLIPTMQGGTHVNGLRQGLLDAMREFCEYRNILPRGVKLSAEDIWDRCAYVLSVKMQDPQFAGQTKERLSSRQCAAFVSGVVKDAFILWLNQNVQAAELLAEMAISSAQRRMRAAKKVVRKK | soluble |
| GANETTKQESPVVDTDINAVTNYIVGMCQKFLQKGEKVTPSSKLEELRTREDRLWDCLDTVEFVLDVEEIFDVTVPDEVADNFQTLQEIADFVVSERAKAGKFMKDQ | soluble |
| TDIAGLTIEHVTGDYLNGFRIIPDNIKYKGVIVTFGGSDGTPAYEQAVQLAQEGYQVLALFFFGMPNQHPTLAEVPVEYYQEIESYISQHFSQPDKITVIGTSKGAEYALLLASLYDSIDNVVLYAPSSHIYAGLDFRNYSSSWSQNGKALPYLDVRSENSLKLFYNFLIKTPISYYHTYKQALDKDKNSEDKRIKVEKTKANILIFAGENDRMWPSAESARLIEKYQPNHTQVTIYKEAGHLFAGDGI | not soluble |
| MAGDPMTKQEKIQKTITFVKHILEKDASGHDWYHIERVHKMAISLSEQEGGNRFIIEMAALLHDVADEKLNESEEAGMKKVSDWLEELRVEEEESKHILHIIANMSYKGGHGGTVESLEGKIVQDADRLDALGAIGIARTFAYGGAKGRLMYDPTIPPREEMTKEEYRKNNDPSLNHFYEKLLKLKDLMNTNAAKQEAEIRHLYMEQFIEQFMKEWNAQILEHHHHHH | soluble |
| SQTVHFQGNPVTVANSIPQAGSKAQTFTLVAKDLSDVTLGQFAGKRKVLNIFPSIDTGVSAASVRKFNQLATEIDNTVVLCISADLPFAQSRFCGAEGLNNVITLSTFRNAEFLQAYGVAIADGPLKGLAARAVVVIDENDNVIFSQLVDEITTEPDYEAALAVLKA | soluble |
| GMSSKEEILSILEAFASTERMGSFFLDNATADFLFIRPSGNPLDAKGFENMWSSGDLVLESAEITKVHKFELLGSNAAICVFTLGSKFTYKGTQNDDLPTVTSIFKKIDEKWKVAWMQRSSGQSDMTLWNE | soluble |
| MSSISSSSSNVRMDRRFDWVGPPDNLSKIRKIMLRRVDNESELERQYRLAREELNQWNSDFWAEHNQLFDRQKSDFVERKQQELGRLEHVSANELSEFYRDFLNDRHVAMMAYNKEWYRRNLQLIWPALKVNVVRFFRMARR | not soluble |
| MGSDKIHHHHHHMKFSLGPILYFWPKQQVFDFYQQAAESDVEHVYLGETVCSKRRELKLDDYLAIAHMLREAGKKVTLSTMTLLEAPAELRELGKYCDNGEFDVEANDVSAIGVLQEQGLNFTAGPGINIYNHQSLRRLIDMGMTRWVVPFELSRDWLQDVLQHNLIDTVRDCFDVEVFSFGHIPLAWSGRCFTARSENRPKDQCELCCIKYPEGREVKSQEGQQVFVLNGIQTQSGTRYNLINQLPGMNGLVDIVRISPQPEGTFDWLQRFRSNINGEHPVTLTSKENNGYWLQLAGLATG | not soluble |
| LVLEGGGMRGLYTAGVLDAFLEAGIKVDGVVSVSAGALFGVNYLSNQPKRALRYNKRFMGDRRYMSFWSWLTTGNFVNKEFSYYKVPMELDVFDQDAFAESGVPFYVVATDIKTGKPDYIKIDHVFEQMEALRASSALPLVSEIVEYKGKRYMDGGLADSLPI | not soluble |
| MSKLMQNPVLHELKKQASFFIKEKIKTARLAVTDVTAEELLTEEVTGSDHSSIDSRSMAAITRVSFEVDQFQRIVKILRQRMVVFDRKEWRGMCNTLSMLNHLLLNGPLSVFSEFQHERAIIEDAIKMEWIDERGFDCGLKVRNIAEKVLRLLEDDMFLKDERERNRKQSIGRITGFGNSSFVIHSETNNGRDGSLMLSNHQTCENDCIADDHPFVENEHKTAQLLLSSST | soluble |
| MNLSEITQQMGEVGKTLSDSVPELLNSTDLVNDPEKMLELQFAVQQYSAYVNVESGMLKTIKDLVSTISNRSF | not soluble |
| MAHHHHHHMQMNSYAGGYTTHNRSYAAMVPPPMPMPPGWEMAYTPNGEIYYIDHNTRTTHWQLPAEYTMQQPVCSYRGPQRQRRGIDRSKAKTKMCMNIENGGTCSYGANCAFAHSSEELSTHPHFNSAPDAGYSAK | not soluble |
| MDFTIPLQLQSNTPIYLQIYEYIKAEIIQGTISVGTRLPSHRNLASQLNISRITVESAYQQLLAEGYAESKPKRGIFVANFDIDIIPNKKRNAAKKTNNLIEEKFEYDCSQGLIDQNAFPITNWKRALQESILIYENALFAKEDPQGEFALREHISTYLYHSRGVHSSPDQIVIGAGTQPLLWLLLQLLGPTKEYGIENPGFHRIHAIIKSCDRQIHPIPLDEKGIDISSLYNTNSNVAYVTPSHQFPLGIIMPLSRRLELLKWANDCNGYIIEDDYDGEFRYAGKPIPSLQSLDSNERVIYMGTFSKSFLPSLRMGYVVLPPHLLKTYQELHGIFKQTVATIQQLAFANFIQSGNWERHLNRSRTLYKRKHHTLVKSIMKEMGANVQILGEQSGLHIVLCVNNSMNENELIESAKKQSVKLYPLSPYDFVNDLRKESYVLLGFGSIPENKIETLATLLKDAWFPSCKETC | not soluble |
| SLQCLRFPGLALPHTRAPSPLGPTRDPVATFLETCREPGSQPAGPASLRAEYLPPSVASIKVSAELLRAALKDGHSGVPLCCATLQWLLAENAAVDVVRARALSSIQGVAPDGANVHLIVREVAMTDLCPAGPIQAVEIQVESSSLADICRAHHAVVGRMQTMVTEQAAQGSSAPDLRVQYLRQIHANHETLLREVQTLRDRLCTEDEASSCATAQRLLQVYRQLRHPSLILL | soluble |
| TPGVEKRVIWAPGGYERRTPYALVYLHGFSATSEEIRPVPDHIAQALGANLVFTRLQGHGRGDDAMAQGSASGWMRDTAEALAAGRAVGERVIVIATSTGATLAAAAALDPEMSADVAAMILVSPNFGVNDPLAFVPTLPGARYWLPRLMGDARDVTGPDADKNTYWTTRYSWSALVPMSVLVQAVVSLDFAQARVPALFWFSDQDRVVRADLTRALAGRWGGPVRVEAVTMGPGDDPSSHVIAGDIMSPGQTDIAVAGMLAWLREQGI | not soluble |
